Reference: patent US8026218 (UNIVERSITY OF ARIZONA, dated 2011)
Read-outs that look alike come from different tables or passages of the source. Bridge positions count the residues as written; N and C are the ends. Square brackets hold non-standard residues; d marks the D form. Primed or numbered codes have the meaning given here. Ends that are not written are not given here. * marks the point of attachment. O‑Bzl(CF3)2 = C-terminal bis(trifluoromethyl)benzyl ester; NH(3,5-(CF3)2-benzyl) = FC(F)(F)c1cc(CN*)cc(C(F)(F)F)c1; OBzl(3,5-(CF3)2) = FC(F)(F)c1cc(CO*)cc(C(F)(F)F)c1; Glc″ = glucosyl on the serine side-chain oxygen; Nle = CCCC[C@H](N)C(=O)O; NHBn = c1ccc(CN*)cc1

Legend:
rat µ opioid receptor [1] = target: T1, rat µ opioid receptor (rat, UniProt P33535 1-398); experiment: competition vs [3H]DAMGO, rMOR cell membranes
T1 construct: whole, on cells; membrane preparations of the transfected cells were used; also called rMOR; MOR
T1 sequence (P33535 whole entry): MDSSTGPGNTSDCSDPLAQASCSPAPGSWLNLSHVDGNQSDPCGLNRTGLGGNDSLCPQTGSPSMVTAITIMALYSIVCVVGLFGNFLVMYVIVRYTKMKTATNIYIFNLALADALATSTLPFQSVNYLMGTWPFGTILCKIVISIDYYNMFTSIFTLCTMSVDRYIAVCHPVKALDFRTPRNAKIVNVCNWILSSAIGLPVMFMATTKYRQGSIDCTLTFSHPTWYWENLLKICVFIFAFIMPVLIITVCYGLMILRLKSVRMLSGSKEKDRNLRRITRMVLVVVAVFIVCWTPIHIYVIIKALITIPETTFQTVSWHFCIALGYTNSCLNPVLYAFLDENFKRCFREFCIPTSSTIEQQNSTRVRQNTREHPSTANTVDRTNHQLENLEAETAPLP

rat µ opioid receptor [2] = target: T1, rat µ opioid receptor; experiment: cell-based or functional assay
human δ opioid receptor [3] = target: T2, human δ opioid receptor (human, UniProt P41143 1-372); experiment: cell-based or functional assay
T2 sequence (P41143 whole entry, stated change not applied): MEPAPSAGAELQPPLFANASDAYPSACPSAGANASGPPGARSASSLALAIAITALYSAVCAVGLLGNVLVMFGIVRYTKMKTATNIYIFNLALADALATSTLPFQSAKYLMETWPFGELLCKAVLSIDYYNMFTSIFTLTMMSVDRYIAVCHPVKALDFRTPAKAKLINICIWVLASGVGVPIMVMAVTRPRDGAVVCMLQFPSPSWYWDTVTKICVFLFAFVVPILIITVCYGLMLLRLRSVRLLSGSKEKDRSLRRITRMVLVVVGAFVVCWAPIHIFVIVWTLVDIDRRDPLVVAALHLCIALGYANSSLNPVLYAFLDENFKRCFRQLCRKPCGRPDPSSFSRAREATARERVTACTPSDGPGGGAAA

[4] = target: T3, µ opioid receptor of the guinea pig isolated ileum (guinea pig, UniProt P97266 1-98); experiment: cell-based or functional assay
T3 sequence (P97266 whole entry): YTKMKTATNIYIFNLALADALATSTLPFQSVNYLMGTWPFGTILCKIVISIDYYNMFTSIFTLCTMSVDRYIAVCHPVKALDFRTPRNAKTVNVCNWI

guinea pig NK1 receptor [5] = target: T4, guinea pig NK1 receptor (guinea pig, UniProt P30547 1-407); experiment: cell-based or functional assay
T4 sequence (P30547 whole entry): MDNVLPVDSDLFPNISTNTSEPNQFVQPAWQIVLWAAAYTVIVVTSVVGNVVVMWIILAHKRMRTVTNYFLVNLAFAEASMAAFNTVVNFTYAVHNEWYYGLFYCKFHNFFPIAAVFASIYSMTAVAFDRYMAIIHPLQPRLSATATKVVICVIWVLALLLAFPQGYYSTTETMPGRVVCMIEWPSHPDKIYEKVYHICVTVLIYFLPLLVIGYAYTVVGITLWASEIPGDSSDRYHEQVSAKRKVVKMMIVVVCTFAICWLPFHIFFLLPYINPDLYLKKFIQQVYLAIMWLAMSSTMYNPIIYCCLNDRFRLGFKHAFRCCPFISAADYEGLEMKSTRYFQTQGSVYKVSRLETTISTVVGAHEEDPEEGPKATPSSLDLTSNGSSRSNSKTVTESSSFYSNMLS

human NK1 receptor [6] = target: T5, human NK1 receptor (human, UniProt P25103 1-407); experiment: competition vs [3H]Substance P, hNK1 CHO cell membranes
T5 construct: whole, on cells; membrane preparations of the transfected cells were used; also called hNK1; human neurokinin-1 receptor
T5 sequence (P25103 whole entry): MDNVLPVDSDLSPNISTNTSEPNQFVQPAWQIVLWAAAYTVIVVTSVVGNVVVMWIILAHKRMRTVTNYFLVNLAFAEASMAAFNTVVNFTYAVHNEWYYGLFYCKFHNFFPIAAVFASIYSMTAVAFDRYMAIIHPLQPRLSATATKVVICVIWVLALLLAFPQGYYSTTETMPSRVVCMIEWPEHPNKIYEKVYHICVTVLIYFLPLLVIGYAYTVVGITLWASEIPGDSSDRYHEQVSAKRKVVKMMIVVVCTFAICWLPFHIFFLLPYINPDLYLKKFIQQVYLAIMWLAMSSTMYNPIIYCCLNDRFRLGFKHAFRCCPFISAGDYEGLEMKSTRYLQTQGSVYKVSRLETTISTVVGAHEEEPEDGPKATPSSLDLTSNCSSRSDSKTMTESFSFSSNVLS

[7] = target: T6, µ opioid receptor of the guinea pig isolated ileum (guinea pig, UniProt P97266 1-98); experiment: cell-based or functional assay; remark: listed apart in the source
T6 sequence (P97266 whole entry): as the sequence (P97266 whole entry) above

human δ opioid receptor [8] = target: T2, human δ opioid receptor; experiment: competition vs [3H]DPDPE, hDOR cell membranes
human NK1 receptor [9] = target: T5, human NK1 receptor; experiment: competition vs [3H]Substance P, hNK1 CHO cell membranes; remark: listed apart in the source
[10] = target: T3, µ opioid receptor of the guinea pig …; experiment: cell-based or functional assay; remark: listed apart in the source
guinea pig NK1 receptor [11] = target: T4, guinea pig NK1 receptor; experiment: cell-based or functional assay; remark: listed apart in the source
rat NK1 receptor [12] = target: T7, rat NK1 receptor (rat, UniProt P14600 1-407); experiment: competition vs [3H]Substance P, rNK1 CHO cell membranes
T7 construct: whole, on cells; membrane preparations of the transfected cells were used; also called rNK1; rNK-1
T7 sequence (P14600 whole entry): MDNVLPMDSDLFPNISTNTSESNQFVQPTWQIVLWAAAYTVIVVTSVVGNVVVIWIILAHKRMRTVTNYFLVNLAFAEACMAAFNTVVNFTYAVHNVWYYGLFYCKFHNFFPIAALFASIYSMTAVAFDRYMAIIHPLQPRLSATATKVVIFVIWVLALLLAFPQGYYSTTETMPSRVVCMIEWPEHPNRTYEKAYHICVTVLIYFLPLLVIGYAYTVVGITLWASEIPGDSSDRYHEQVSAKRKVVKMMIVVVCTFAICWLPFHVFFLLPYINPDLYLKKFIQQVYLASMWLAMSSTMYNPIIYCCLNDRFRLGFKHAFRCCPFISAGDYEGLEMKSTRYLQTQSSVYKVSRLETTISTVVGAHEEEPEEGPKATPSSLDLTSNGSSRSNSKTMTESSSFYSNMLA

human δ opioid receptor [13] = target: T2, human δ opioid receptor; experiment: competition vs [3H]DPDPE, hDOR cell membranes; remark: listed apart in the source
human NK1 receptor [14] = target: T5, human NK1 receptor; experiment: competition vs [3H]Substance P, hNK1 CHO cell membranes; remark: listed apart in the source
human δ opioid receptor [15] = target: T2, human δ opioid receptor; experiment: cell-based or functional assay; remark: listed apart in the source
rat µ opioid receptor [16] = target: T1, rat µ opioid receptor; experiment: competition vs [3H]DAMGO, rMOR cell membranes; remark: listed apart in the source
[17] = target: T6, µ opioid receptor of the guinea pig …; experiment: cell-based or functional assay; remark: listed apart in the source
[18] = target: T3, µ opioid receptor of the guinea pig …; experiment: cell-based or functional assay; remark: listed apart in the source
guinea pig NK1 receptor [19] = target: T4, guinea pig NK1 receptor; experiment: cell-based or functional assay; remark: listed apart in the source
rat µ opioid receptor [20] = target: T1, rat µ opioid receptor; experiment: cell-based or functional assay; remark: listed apart in the source
human δ opioid receptor [21] = target: T2, human δ opioid receptor; experiment: cell-based or functional assay; remark: listed apart in the source
rat NK1 receptor [22] = target: T7, rat NK1 receptor; experiment: competition vs [3H]Substance P, rNK1 CHO cell membranes; remark: listed apart in the source
human δ opioid receptor [23] = target: T2, human δ opioid receptor; experiment: competition vs [3H]DPDPE, hDOR cell membranes; remark: listed apart in the source
human δ opioid receptor [24] = target: T2, human δ opioid receptor; experiment: competition vs [3H]DPDPE, hDOR cell membranes; remark: listed apart in the source
[25] = target: T3, µ opioid receptor of the guinea pig …; experiment: cell-based or functional assay; remark: listed apart in the source
guinea pig NK1 receptor [26] = target: T4, guinea pig NK1 receptor; experiment: cell-based or functional assay; remark: listed apart in the source
rat NK1 receptor [27] = target: T7, rat NK1 receptor; experiment: competition vs [3H]Substance P, rNK1 CHO cell membranes; remark: listed apart in the source
[28] = target: T3, µ opioid receptor of the guinea pig …; experiment: cell-based or functional assay; remark: listed apart in the source
guinea pig NK1 receptor [29] = target: T4, guinea pig NK1 receptor; experiment: cell-based or functional assay; remark: listed apart in the source
rat NK1 receptor [30] = target: T8, rat NK1 receptor (rat, UniProt P14600 1-407); experiment: competition vs [3H]substance P, membranes of rNK1-transfected CHO cells
T8 construct: whole, on cells; Assayed as membrane preparations of transfected CHO cells; also called rNK1; rNK-1
T8 sequence (P14600 whole entry): as above

rat µ opioid receptor [31] = target: rat µ opioid receptor (rat, UniProt P33535 1-398); experiment: cell-based or functional assay; remark: listed apart in the source
Target sequence in this assay (P33535 whole entry): as the sequence (P33535 whole entry) above

human δ opioid receptor [32] = target: T9, human δ opioid receptor (human, UniProt P41143 1-372); experiment: cell-based or functional assay; remark: listed apart in the source
T9 sequence (P41143 whole entry, stated change not applied): as the sequence (P41143 whole entry, stated change not applied) above

human δ opioid receptor [33] = target: T9, human δ opioid receptor; experiment: competition vs [3H]DPDPE, membranes of hDOR-transfected HN9.10 cells

B1: TyrDAlaGlyPheNleSer(OGlu)LeuTrpNHBn(CF3)2 (peptide)
peptide: Y[dA]GF[Nle]S(Glc″)LW-{NH(3,5-(CF3)2-benzyl)}
notes: also called TY044
Ki (rat µ opioid receptor [1]): 3370 nM | GTP binding EC50 (rat µ opioid receptor [2]): 380 nM | GTP binding Emax (rat µ opioid receptor [2]): 85% | GTP binding Emax (human δ opioid receptor [3]): 162% | GPI/LMMP IC50 [4]: 249 nM | GPI/LMMP SP antagonist Ke (guinea pig NK1 receptor [5]): 18.4 nM | Ki (human NK1 receptor [6]): 1.3 nM

B2: Tyr-DAla-Gly-Phe-Pro-Trp-O-Bzl(CF3)2 (NP39) (peptide)
peptide: Y[dA]GFPW-{O‑Bzl(CF3)2}
GPI/LMMP µ-agonist IC50 [7]: 259 nM

B3: DmtDAlaGlyPheNleProLeuTrpNMeBn(CF3)2 (peptide)
peptide: YAGFXPLW
modifications: Dmt at 1 (written Y); D-Ala at 2; Nle at 5 (written X); C-terminal NMe-3,5-Bzl(CF3)2 amide
notes: also called TY052
Ki (human δ opioid receptor [8]): 0.46 nM | Ki (human NK1 receptor [9]): 0.21 nM

B4: Tyr[DCysGlyPheNleProCys]TrpNHBn(CF3)2 (peptide)
peptide: Y[dC]GF[Nle]PCW-{NH(3,5-(CF3)2-benzyl)}
modifications: disulfide 2-7
notes: cyclic; also called TY035; [D-Cys2, Cys7]TY027
GPI (µ) IC50 [10]: 1000 nM | GPI Substance P antagonist Ke (guinea pig NK1 receptor [11]): 2.2 nM | LogIC50 (rat NK1 receptor [12]): -7 | Ki (human δ opioid receptor [13]): 1.3 nM | LogIC50 (human δ opioid receptor [13]): -8.6 | Ki (human NK1 receptor [14]): 0.1 nM | LogIC50 (human NK1 receptor [14]): -9.7 | [35S]GTPγS binding EC50 (human δ opioid receptor [15]): 0.02 nM | [35S]GTPγS binding Emax (human δ opioid receptor [15]): 11% | [35S]GTPγS binding LogEC50 (human δ opioid receptor [15]): -10.8 | Ki (rat µ opioid receptor [16]): 79 nM | LogIC50 (rat µ opioid receptor [16]): -6.8

B5: Tyr-D-Ala-Gly-Phe-Trp-O-3′,5′(CF3)2-Bzl (NP36) (peptide)
peptide: Y[dA]GFW-{OBzl(3,5-(CF3)2)}
GPI µ-agonist IC50 [17]: 523 nM

B6: TyrDAlaGlyPheMetProLeuTrpOBn(CF3)2 (peptide)
peptide: Y[dA]GFMPLW-{OBzl(3,5-(CF3)2)}
notes: also called TY005
GPI/LMMP IC50 [18]: 359 nM | GPI/LMMP Substance P antagonist Ke (guinea pig NK1 receptor [19]): 24.7 nM | GTP binding Emax (rat µ opioid receptor [20]): 45.6% | GTP binding EC50 (human δ opioid receptor [21]): 2.9 nM | GTP binding Emax (human δ opioid receptor [21]): 47.6% | IC50 (rat NK1 receptor [22]): 6.4 nM | Ki (human δ opioid receptor [23]): 2.8 nM | Ki (human δ opioid receptor [24]): 2.8 nM | GPI/LMMP IC50 [25]: 359 nM | GPI/LMMP SP antagonist Ke (guinea pig NK1 receptor [26]): 24.7 nM | Ki (rat NK1 receptor [27]): 0.2 nM | GPI (µ) IC50 [28]: 360 nM | GPI Substance P antagonist Ke (guinea pig NK1 receptor [29]): 25 nM

B7: Tyr-DAla-Gly-Phe-Met-Trp-O-Bzl(CF3)2 (NP38) (peptide)
peptide: Y[dA]GFMW-{O‑Bzl(CF3)2}
GPI/LMMP µ-agonist IC50 [7]: 393 nM

B8: Tyr-D-Ala-Gly-Trp-O-3′,5′(CF3)2-Bzl (NP44) (peptide)
peptide: Y[dA]GW-{OBzl(3,5-(CF3)2)}
GPI µ-agonist IC50 [17]: 844 nM

B9: H-Tyr-D-Ala-Gly-Phe-Met-Pro-Leu-Trp-NH-Bzl (peptide)
peptide: H-Y[dA]GFMPLW-NHBn
modifications: also: TFA salt
notes: TFA salt; also called TY025
Ki (rat NK1 receptor [30]): 700 nM | LogIC50 (rat NK1 receptor [30]): -5.6 | [35S]GTPγS binding Emax (rat µ opioid receptor [31]): 47% | [35S]GTPγS binding EC50 (human δ opioid receptor [32]): 2.6 nM | [35S]GTPγS binding LogEC50 (human δ opioid receptor [32]): -8.6 | Ki (human δ opioid receptor [33]): 0.44 nM | LogIC50 (human δ opioid receptor [33]): -9.1
